Source: paper PMC7531523 (mAbs, 2020)

Legend:
Assay in all cases: flow cytometry on cells
[1] = target: PD-1 expressed on Flp-In CHO cells (Homo sapiens (), UniProt Q15116)
[2] = target: PD-L1 expressed on Flp-In CHO cells (Homo sapiens (), UniProt Q9NZQ7)
[3] = target: OX40 expressed on Flp-In CHO cells (Homo sapiens (), UniProt P43489)
Chain of OX40 expressed on Flp-In CHO cells (P43489 29-277): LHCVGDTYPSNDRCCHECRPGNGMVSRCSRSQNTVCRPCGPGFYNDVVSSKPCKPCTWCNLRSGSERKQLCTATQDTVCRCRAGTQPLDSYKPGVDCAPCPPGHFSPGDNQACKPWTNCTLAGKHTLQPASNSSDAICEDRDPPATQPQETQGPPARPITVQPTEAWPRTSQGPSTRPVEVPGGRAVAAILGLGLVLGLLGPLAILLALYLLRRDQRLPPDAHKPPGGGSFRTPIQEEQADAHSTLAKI

Chain of PD-L1 expressed on Flp-In CHO cells (Q9NZQ7 19-290): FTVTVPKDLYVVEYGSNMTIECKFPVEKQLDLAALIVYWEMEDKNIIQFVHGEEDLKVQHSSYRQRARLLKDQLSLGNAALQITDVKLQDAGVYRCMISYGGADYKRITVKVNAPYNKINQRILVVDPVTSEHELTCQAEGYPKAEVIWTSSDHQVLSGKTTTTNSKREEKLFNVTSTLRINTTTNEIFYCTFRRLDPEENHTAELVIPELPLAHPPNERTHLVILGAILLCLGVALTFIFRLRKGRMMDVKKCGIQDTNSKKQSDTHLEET
Chain of PD-1 expressed on Flp-In CHO cells (Q15116 25-288): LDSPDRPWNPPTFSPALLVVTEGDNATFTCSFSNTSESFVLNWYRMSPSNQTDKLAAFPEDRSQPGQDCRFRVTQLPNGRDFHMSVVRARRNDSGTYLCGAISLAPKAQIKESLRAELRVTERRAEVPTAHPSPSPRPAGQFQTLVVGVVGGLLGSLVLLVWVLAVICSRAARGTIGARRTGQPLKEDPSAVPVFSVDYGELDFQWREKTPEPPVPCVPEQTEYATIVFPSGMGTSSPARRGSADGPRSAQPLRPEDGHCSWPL

B1: tPD1.16 full-length human IgG1 (antibody, V domains shown)
VH: QVQLVESGGGVVQPGRSLRLSCAASGFTFSNYGMHWVRQAPGKGLEWVAVIWYDGTNKFYADSVKGRFTISRDNSKNTLYLQMNSLRAEDTAVYYCATNSDDYWGQGTLVTVSS
VL: AIQMTQSPSSLSASVGDRVTITCRASQDIRNDLGWYQQKPGKAPKLLIYAASLLRSGVPSRFSGSGSGTDFTLTISSLQPEDFATYYCLQDNNYPRTFGQGTKVEIK
B1 gave an EC50 [1] of 2.8 nM.

B2: tPDL1.3 full-length human IgG1 (antibody, V domains shown)
VH: QVQLVQSGAEVKKPGASVKVSCKASGFTFTSYDINWVRQATGQGLEWMGWMHPNSGITGYAQKFQGRVTMTRNTSISTAYMELSSLSSEDTAVYFCARYYYVSGSYDYWGQGTLVTVSS
VL: EIVMTQSPATLSLSPGERATLSCWASQSVSSSYLSWYQQKPGQAPRLLIYGASTRATGIPARFSGSGSGTDFTLTISSLQPEDFAVYYCQQDYNLPYTFGQGTKLEIK
Work on B2 yielded an EC50 [2] of 0.3 nM.

B3: tOX40.24 full-length human IgG1 (antibody, V domains shown)
VH: QVQLVESGGGVVQPGRSLRLSCAASGFTFRSYGMHWVRQAPGKGLEWLAIIWYDGSNKYYADSVKGRLTISRDNSKNTLYLQMNSLRAEDTAVYYCARDTQVAEAGFPHHHYYGMDVWGQGTTVTVSS
VL: not shown
For B3, the EC50 [3] was 0.7 nM.
